From patent US7521540B2, “CYR61 compositions and methods” (Munin Corporation, priority 1996, dated 2009) come the findings set out here.

For data set [1], the system named is Limb mesenchymal cells. As to the kind of experiment: Limb mesenchymal cell proliferation in micromass culture. Type of data set: cell-based, mouse. The protocol:
Ahrens et al., Dev. Biol. 60:69-82 (1977), has reported that these cells, in micromass culture, undergo chondrogenesis in a manner similar to the in vivo process. Mesenchyme cells were obtained from mouse embryonic limb buds by trypsin digestion (1 mg/ml, 1:250 dilution of porcine pancreatic trypsin, Sigma Chemical Co.). Cells were explanted in plastic tissue culture wells and allowed to attach for 2 hours at 37° C., 5% CO2. Cells were then incubated for 24 hours at 37° C., 5% CO2 in MEM with 10% FBS, penicillin (50 U/ml), and streptomycin (50 μg/ml). At this point, the composition of the medium was changed by substituting 4% NuSerum (Collaborative Biomedical Products, Inc.) for 10% FBS. Individual cultures then received Cyr61, fibronectin, heparin (each at approximately 1 μg/ml) or buffer as a negative control. […] Harlow et al.
Cell proliferation during the 4 day culture period was determined by counting cell number and by incorporation of [^3H]-thymidine. To determine cell number, cells were harvested by trypsin/EDTA (Sigma) and counted with a Coulter counter. In parallel cultures, [^3H]-thymidine (1 μCi/ml; ICN) was added to the media for 18 hours and incorporation in the TCA-insoluble layer was determined by liquid scintillation counting.

The next data set has as its system HUVE cells. The experiment in a line: HUVE cell attachment to murine Cyr61-coated plates. The format is cell-based, human. The method, then: (§1) Another embodiment of the invention is directed to the use of Cyr61 to mediate cellular attachment to the extracellular matrix. Induction of cellular adhesion was investigated using murine Cyr61, fibronectin, and bovine serum albumin (BSA). Immunological 96-well plates (Falcon brand) were coated with 50 μl of 0.1% BSA in PBS at 4° C. in the presence of 0-30 μg/ml concentrations of murine Cyr61 or fibronectin. After two hours exposure to the coating solution, non-diluted immune or pre-immune antisera (30 μl/well), or affinity-purified anti-Cyr61 antibodies were added. For some wells, the coating mixture was adjusted to 10 mM DTT or 100 mM HCl. After 16 hours incubation, the coating solution was removed and the well surface was blocked with 1% BSA in phosphate-buffered saline (PBS) for 1 hour at room temperature. HUVE cells were plated in Ham's complete F12K medium [GIBCO-BRL, Inc.; Ham, Proc. Natl. Acacd. Sci. (USA) 53:786 (1965)] at 5×10^3-10^4 cells/well. Cycloheximide was added to 100 μg/ml immediately before plating and monensin was added to 1 μM 14 hours before plating. After a 2-hour incubation at 37° C., the wells were washed with PBS and attached cells were fixed and stained with methylene blue. The attachment efficiency was determined by quantitative dye extraction and measurement of the extract absorbance at 650 nm. Oliver et al., J. Cell. Sci. 92:513-518 (1989).

Data set [2] in a line: Sensitivity of Cyr61 cell-attachment activity to DTT, heat, acid and protease. Type of data set: physicochemical. The method, then:
Because murine Cyr61 contains 38 cysteines in the 355 amino acid secreted portion, the contribution of disulfide bond formation to Cyr61 tertiary structure was investigated. […] However, Cyr61 was inactivated by heating at 75° C. for 5 minutes, by incubation in 100 mM HCl, or upon extensive digestion with chymotrypsin. […] In addition, Cyr61 is neither phosphorylated nor glycosylated.
as §1

In data set [3] the test system is Limb mesenchymal cells. The experiment in a line: Chondrogenesis, [35S]-sulfate incorporation in micromass cultures. Type of data set: cell-based, mouse. The protocol:
Cell proliferation was assessed by the thymidine assay, described above, and by microscopic cell counts. Chondrogenesis was assessed by quantifying the incorporation of [^35S]-sulfate (ICN Biomedicals, Inc.) into sulfated glycosaminoglycans, and by qualitatively determnining the extent of chondrogenesis by cell staining with Alcian Blue. Cultures, described above, were labeled with 2.5 μCi/ml [^35S]-sulfate for 18 hours, washed twice in PBS, fixed with Kahle's fixative (Pepper et al., J. Cell Sci. 109:73-83 [1995]) and stained for 18 hours in 0.5% Alcian Blue, pH 1.0. The extent of chondrogenesis is correlated with the intensity of Alcian Blue staining. San Antonio et at., Dev. Biol. 115:313-324 (1986).
Chondrogenic differentiation was quantitated by incorporation of […] (ICN) into sulfated glycosaminoglycans and assessed qualitatively by Alcian Blue staining. Cultures were radiolabeled with 2.5 μCi/ml [^35S]-sulfate for 18 hr, fixed with Kahle's fixative and stained with 0.5% Alcian Blue, pH 1.0 (Lev et al., 1964). The extent of chondrogenesis is correlated with the intensity of Alcian Blue staining (San Antonio et al., 1986). [^35S]-Sulfate incorporation in the fixed cell layer was quanititated by liquid scintillation counting.
As shown above in Example 11, anti-Cyr61 antibodies can neutlralize both the cell adhesion and DNA-synthesis enhancement activities of Cyr61. Anti-Cyr61 antibodies were added to the mesenchymal cell culture media or mixed the cell suspension prior to plating. […] These observations were correlated with decreased Alcian Blue staining.

Another data set concerns NIH 3T3 cells. As to the kind of experiment: Fibroblast chemotaxis, modified Boyden chamber. The format is cell-based, mouse. From the text:
Cyr61 also affects chondrocytes, e.g., […] involved in skeletal development. In particular, Cyr61 influences the development, and perhaps maintenance, of cartilage, in contrast to the variety of growth-related proteins that exclusively influence development and maintenance of the bony skeleton. The chemotactic response of NIH 3T3 cells to murine Cyr61 was examined using a modified Boyden chamber (Neuroprobe Inc., catalog no. AP48). Grotendorst, Meth. Enzymol. 147:144-152 (1987). Purified Cyr61 protein was serially diluted in DMEM containing bovine serum albumin (BSA; 0.2 mg/ml) and added to the lower well of the chamber. The lower well was then covered with a collagen-coated polycarbonate filter (8 μm pore diameter; Nucleopore Corp., Pleasanton, Calif.). Cells (6×10^4) were then loaded into the upper well. After 5 hours incubation (10% CO2, 37° C.), the filter was removed and the cells were fixed and stained using Wright-Giemsa stain (Harleco formulation; EM Diagnostic Systems, Gibbstown, N.J.). Cells from the upper surface of the filter were then removed by wiping with a tissue swab. The chemotactic response was determined by counting the total number of migrating cells detected in ten randomly selected high-power microscopic fields (400-fold magnification) on the lower surface of the filter. Duplicate trials were performed for each experiment and the experiment was repeated three times to ensure reproducibility of the data.

B1: Cyr61: Cysteine-rich ECM signaling protein; murine sequence SEQ ID NO:2, recombinant from Baculovirus-infected Sf9 cells (protein, listed as Mus musculus)
chain: MSSSTFRTLAVAVTLLHLTRLALSTCPAACHCPLEAPKCAPGVGLVRDGCGCCKVCAKQLNEDCSKTQPCDHTKGLECNFGASSTALKGICRAQSEGRPCEYNSRIYQNGESFQPNCKHQCTCIDGAVGCIPLCPQELSLPNLGCPNPRLVKVSGQCCEEWVCDEDSIKDSLDDQDDLLGLDASEVELTRNNELIAIGKGSSLKRLPVFGTEPRVLFNPLHAHGQKCIVQTTSWSQCSKSCGTGISTRVTNDNPECRLVKETRICEVRPCGQPVYSSLKKGKKCSKTKKSPEPVRFTYAGCSSVKKYRPKYCGSCVDGRCCTPLQTRTVKMRFRCEDGEMFSKNVMMIQSCKCNYNCPHPNEASFRLYSLFNDIHKFRD
As for B1, the “cell number and DNA synthesis” value in the data set with Limb mesenchymal cells [1] was “both increased cell number and enhanced DNA synthesis after 2 and 3 days in culture”. The “HUVE cell attachment, A650” value with HUVE cells (coating 1 μg/ml) turned out to be 0.1 A650; in the data set with HUVE cells (coating 30 μg/ml), 0.8 A650. Further, the “ability to mediate cell attachment after treatment” value in data set [2] (10 mM dithiothreitol (DTT), 16 hours) is reported as “did not affect the ability of Cyr61 to mediate cell attachment”. Besides, in data set [2] (75° C. for 5 minutes), the activity after heating entry is on record as “inactivated”. Further, the activity after protease result in data set [2] (extensive digestion with chymotrypsin) is given as “inactivated”. Also, in data set [2] (incubation in 100 mM HCl), the activity after acid result was “inactivated”. Besides, the “increase in [35S]-sulfate incorporation” value in the data set with Limb mesenchymal cells [3] (0.3 μg/ml) stood at 1.5 fold; with Limb mesenchymal cells [3] (5 μg/ml (120 nM)) it was 3.5 fold. For the same molecule, the “cartilage formation” value in the data set with Limb mesenchymal cells [3] (10 μg/ml) is on record as “formed a more massive mound of cartilage”. For the same molecule, in the data set on Limb mesenchymal cells [3] (sulfate/cell number ratio), the “increase in normalized sulfate incorporation over control” value is listed as “approximately 2 fold”. Besides, the “optimal concentration for the chemotactic activity” value with NIH 3T3 cells lay within 1 to 5 µg/mL. Also, in the data set with NIH 3T3 cells (0.5 μg/ml), the “migrating cells per high-power field” value is “about 5.2 cells”. Besides, the “average number of migrating cells detected per field” value in the data set with NIH 3T3 cells (1 μg/ml) worked out at 7.5 cells; with NIH 3T3 cells (5 μg/ml) it was 18.5 cells; in the data set on NIH 3T3 cells (10 μg/ml), 18.7 cells.
